Results reported in the supplement of paper PMC9170038.

System: MS2 coat protein
Assay: apparent KD of MS2 coat protein; designed switch direction (-1 OFF switch, 1 ON switch): -1; higher = weaker reporter binding
Procedure, shortened: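 For each design, the apparent KD is the median over clusters of curves fitted to normalised cluster fluorescence. Clusters held RNA switches with common flanks, transcribed on Illumina chips by stalled E. coli RNA polymerase. These were titrated with SNAP-549-labelled MS2 coat protein, doubling from 0.7 or 1.5 nM to 3 µM, without input, with 200 uM small-molecule ligand, or with an oligonucleotide input.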

[1] = input ligand: microRNA oligo, concentration not stated
[2] = Eterna round: R95, input ligand: microRNA oligo, concentration not stated
[3] = Eterna round: R95, input ligand: FMN 200 uM
[4] = Eterna round: R95, input ligand: none

Row | Sequence | apparent KD of MS2 coat protein (input ligand: FMN 200 uM) [nM] | apparent KD of MS2 coat protein [1] [nM] | apparent KD of MS2 coat protein (input ligand: none) [nM] | apparent KD of MS2 coat protein [2] [nM] | apparent KD of MS2 coat protein [3] [nM] | apparent KD of MS2 coat protein [4] [nM]
1 | UUAAUUCUGAUUCUUGAAAUACAUGAGGAUCACCCAUGUUCACAGGAUAUUGAUUAUGGUAGUAACAAGAAGGGUGUAUCAUUU [JR_ExcNG3_Sub040] (Eterna round: R96, puzzle: Exclusion NG 3) | 192 | 162 | 111 |  |  | 
2 | GGUGUACAUGAGGAUCACCCAUGUUAGGAUAUAUCCAAACGCCUAGAGGAGAGGCACGAUAGAAGGAACGUGUA [Eternabot (Original) Solution 33] (Eterna round: R97, puzzle: Exclusion 1) | 37.2 |  | 41 |  |  | 
3 | AAGUAUAGAGGAUAUAGUAAGUACUACAUGAGGAUCACCCAUGUUCUUCAUUACGUAUUUCUAGAAGGCUGAUAAA [EX-5 Malc#25] (puzzle: Exclusion 5) |  |  |  | 369 |  | 
4 | AGAAAUGCCCAUGGCCGCAAGCUUUUUACUUGUCUUACCACAUGAGGAUCACCCAUGUGACAUGGAUUCCUUAUGAU [Sensor v3, turn-off variant 2 (MOD of Oranla)] (puzzle: Sensor v3, turn-off variant 2) |  |  |  | 750 | 169 | 248
5 | AAGUACCGUCACGAAAGUGAUGGUACAGCAAGCAAAUGUACAUGAGGAUCACCCAUGUCCUCAAUUGCUCGUCUUAU [Sensor 3 - 58] (puzzle: Sensor v3, turn-off variant 2) |  |  |  | 181 | 81.7 | 87.4
6 | ACGUAUAGAGGAUAUACUGAAUAUUACAUGAGGAUCACCCAUGUUCUUCAAAGUAUAUUUGUAGAAGGCUAAUGAA [EX-5 Malc#9] (puzzle: Exclusion 5) |  |  |  | 10.2 | 15.8 | 9.61
7 | UGUUGUCGCGCAGGAUAUGAGGAUCACCCAUAUAGAGGAUAUGAAAAGAAGGUUCUGAGGAUCACCCAGAAGGGCGGGACAACU [pwkr exNG2 2xF5 2xFMN.19] (Eterna round: R96, puzzle: Exclusion NG 2) | 384 | 48.7 | 67.4 |  |  | 
8 | GCACGGAGUGUAGGAUAUCUGUGCGAUUAGCUCAGAGAAGGACAUGAGGAUCACCCAUGUGUGUUCCAAACACAAAAUCCGUGC [Eli exng1 - 065] (Eterna round: R96, puzzle: Exclusion NG 1) | 47.2 | 12.8 | 18 |  |  | 
9 | CAAAGUUGGUAAGGAUAUCCCACAUUAUUCUGACCCGUGCAAGCUACAUGAGGAUCACCCAUGUGGGAGAAGGUGCGUUAAAGU [Design 2] (Eterna round: R96, puzzle: Exclusion NG 2) | 261 | 164 | 196 |  |  | 
10 | GAAGAAGAGAGAAUAGAAAACAUGAGGAUCACCCAUGUGAGAAGAUGAGGGUGUAAUAGGCUUUUGGCUCGUCUUAU (puzzle: Sensor v3, turn-off variant 1) |  |  |  | 89.7 | 37.9 | 47.2
11 | UUUUAACAUGAGGAUCACCCAUGUCAGGAUAUGCUAUUUUUUUUUUUUUUUUUUUUUUGCAGAAGGGACAUUUU [My solution] (puzzle: Exclusion 1) |  |  |  | 29.4 | 78.5 | 55.7
12 | AGUACUAACACGAAAGUGUUAGUACAAUAAGCUUGUGACACAUGAGGAUCACCCAUGUCCUCAUAAGCUCGUCUUAU [salish99_TOv2_r3_046] (puzzle: Sensor v3, turn-off variant 2) |  |  |  | 656 | 23.9 | 25.6
13 | AGGCGGAAAGUAAGGAUAUCUUGACCAAAGGGUUGAGAGAAGGUACAUGAGGAUCACCCAUGUGGUGACCGCCA [Morphing Claw (Vienna)] (Eterna round: R97, puzzle: Brourd's mod of Exclusion 4) | 228 |  | 685 |  |  | 
14 | UUAAAUCAUGUAGGAUAUGCGUGGCGAAGCUAUGCAGAAGGACAUGAGGAUCACCCAUGUUCUUCCGUCUGCGUACAGACGGAA [Mat - Exclusion NG 1 - Mod of JL - D38] (Eterna round: R96, puzzle: Exclusion NG 1) | 284 | 33.7 | 40.8 |  |  | 
15 | GUACUGACAGGAUAUACAUGAGGAUCACCCAUGUGCCCUUAAAGAUGCAAAGCAUCUAGUAGAAGGGUCUGUAC [Omei Ex3 Model Bachelor's Dilema v23] (Eterna round: R97, puzzle: Exclusion 3) | 66.1 |  | 33.4 |  |  | 
16 | UACAGUCAUCCUUGUUGUUACAUGAGGAUCACCCAUGUUAGUAUAGUUAAGUUAUGUGAGUUUGUUGUUCGUUUUAU [JR_STOV1_v2_Sub077] (Eterna round: R97, puzzle: Sensor, turn-off variant 1) | 149 |  | 169 |  |  | 
17 | UAAUUAAGUGUGAGGAUAUGCUGGUCCUUGGAUCAGCAGAAGGCACAUGAGGAUCACCCAUGUAAUAUAUUUAU [JL bmx4 3.11] (puzzle: Brourd's mod of Exclusion 4) |  |  |  | 81.9 |  | 

Row | Sequence | apparent KD of MS2 coat protein (input ligand: FMN 200 uM) [nM] | apparent KD of MS2 coat protein [1] [nM] | apparent KD of MS2 coat protein (input ligand: none) [nM] | apparent KD of MS2 coat protein [2] [nM] | apparent KD of MS2 coat protein [3] [nM] | apparent KD of MS2 coat protein [4] [nM]
18 | AUCAUGUAAGGAUAUGAAAGUAAACGCGUGAAGACCACGCAUCAGAAGGUACAUGAGGAUCACCCAUGUGUCCG [Soesatle] (Eterna round: R97, puzzle: Exclusion 4) | 60.6 |  | 19.8 |  |  | 
19 | GAGUUAGCGUGAGGAAUAUACAUGAGGAUCACCCAUGUUGGCUAAUAUAUUGCUCGUCUUAUAACAACAAUUAACUG [Mod-hoo-honey#a] (Eterna round: R97, puzzle: Sensor, turn-off variant 1) | 16 |  | 16.4 |  |  | 
20 | GCACGGUUGGUAGGAUAUCAUUGCGAUUAGCUAUGAGAAGGACCACAUGAGGAUCACCCAUGUCCUCUAAUUAGCCUACCGUGC [Eli exng1 - 015] (Eterna round: R96, puzzle: Exclusion NG 1) | 383 | 109 | 151 |  |  | 
21 | GUGUAACUACACGGGCUCAACAUGAGGAUCACCCAUGUCAUACACGCAAGCUUUCUGCUUGUCUUAUCUGUCCGUGA [Acela] (puzzle: Sensor v3, turn-off variant 1) |  |  |  | 12.5 | 13.2 | 10.4
22 | UAUUAGCAAGCGAGAUCCCACAUGAGGAUCACCCAUGUGCUCGUCUGCUCCAGAAUUACUGGAGCAGCUCGUCUUAU [Winner reversed engineered 19] (Eterna round: R97, puzzle: Sensor, turn-off variant 1) | 21.7 |  | 22.4 |  |  | 
23 | UCCCAGUGAGGAUAUACUUAUCGGGUCGGUUAGCGAGGAAAACUUGAGGAUCACCCAAGUAGAAGGCGCAACGU [Isinar] (Eterna round: R97, puzzle: Exclusion 2) | 35.1 |  | 29.6 |  |  | 
24 | CGGUGCUCGUGGAAACAUGAGGAUCACCCAUGUAGAGUUAGCGAGGAUAUCGGUAACACAUAUCACGAGAAGGCGCGAACCUGA [Ex NG3 #30] (Eterna round: R96, puzzle: Exclusion NG 3) | 27.8 | 11.7 | 16.3 |  |  | 
25 | CACCUGAAAGCAGGAUAUCUUACAUGAGGAUCACCCAUGUAAUAAAUGAGAAUUUCGAAUGUAAUAGAGAAGGGCUGAAAAGGC [Ostracism 86 - Jieux - Exclusion NG 2] (Eterna round: R96, puzzle: Exclusion NG 2) | 47 | 37.7 | 40.3 |  |  | 
26 | UAAAAUAGUGUGAGGAUAUGCUGGUCCUUGGAUCAGCAGAAGGCACAUGAGGAUCACCCAUGUAAAUAAUAAUA [Mat - Exclusion 4 - JL Mod - D27] (puzzle: Brourd's mod of Exclusion 4) |  |  |  | 54.6 | 184 | 67.1
27 | GCUCGCGGGCAAGGAUAUCCCACGCUGUUCUGGCCCGUGUCUGUUACAUGAGGAUCACCCAUGUGGGAGAAGGUGCACCAGGGC [Design 45] (Eterna round: R96, puzzle: Exclusion NG 2) | 115 | 26.8 | 44.1 |  |  | 
28 | CUUCGACAUGAGGAUCACCCAUGUCAGGAUAUUGUUUAUCUGGUUUUUUACAGAUAUGCAAGAAGGGAUGUGUU [LRO-Excl1-03] (puzzle: Exclusion 1) |  |  |  | 26.5 |  | 
29 | AAAAGUUAAGGAUAUACUUGAGGAUCACCCAAGUAGGUGGCUUCAGCCGGAAACCGGCGUAGAAGGUAGCAGAA [Laentezabe] (Eterna round: R97, puzzle: Exclusion 3) | 54.9 |  | 56.3 |  |  | 
30 | GAUCAACAUGAGGAUCACCCAUGUGAGGAUAUGCGAGAAUAGACUUCGGUCAGAUAGAGCAGAAGGCGCAGAUA [EX1 #3] (Eterna round: R97, puzzle: Exclusion 1) | 63.7 |  | 37.9 |  |  | 
31 | AAGUACCGUCACGAUAGUGAUGGUACAACAAGCAUGUAAACAUGAGGAUCACCCAUGUCCUCGAUUGCUCGUCUUAU [Sensor 3 - 67] (puzzle: Sensor v3, turn-off variant 2) |  |  |  | 601 | 527 | 537
32 | AUAAUGUCAGGAUAUCAGUCGUACAGCGAUAGCUGUACGACUGAGAAGGGACAUGAGGAUCACCCAUGUGGUUA [E4/7-A4] (Eterna round: R97, puzzle: Exclusion 4) | 169 |  | 1910 |  |  | 
33 | GUAGCUGAUAAGGAUAUUGUACCUAACCUGCGUCGAGAAGGUGUCACAUGAGGAUCACCCAUGUUUAGGCAAAG [Eternabot (L2) Solution 22] (Eterna round: R97, puzzle: Exclusion 6) | 24.4 |  | 29.5 |  |  | 
